Publication PMC9765456

Target: AP2-μ2 (plasmid-encoded: μ2-HA; μ2-myc in AP2 core and hemicomplex) (UniProt P84092)
Assay: anti-FLAG co-IP, Western blot
Conditions: reference: wild type; sites S31,S32

## HPV-16 E7 (from UniProt P03129) S31A/S32A
  binding against the reference: weaker
